Measurements: article PMC3289903

Target: recombinant Tp0956 (non-lipidated, residues 2-302) (Treponema pallidum)
Assay: AUC

Sequence of recombinant Tp0956 (non-lipidated, residues 2-302) (Treponema pallidum) (O83922 23-323 limits assumed): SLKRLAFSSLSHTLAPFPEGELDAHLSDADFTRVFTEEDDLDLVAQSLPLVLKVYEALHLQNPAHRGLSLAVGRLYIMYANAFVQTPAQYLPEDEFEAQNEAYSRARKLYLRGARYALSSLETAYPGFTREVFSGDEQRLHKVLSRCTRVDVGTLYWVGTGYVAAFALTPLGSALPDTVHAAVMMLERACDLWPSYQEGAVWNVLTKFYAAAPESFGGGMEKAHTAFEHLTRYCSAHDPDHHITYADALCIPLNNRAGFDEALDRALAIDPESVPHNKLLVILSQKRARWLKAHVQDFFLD

Kd(1), first binding event (macroscopic): 60 nM
cooperativity factor α2 (second binding event): 1.5
cooperativity factor α3 (third binding event): 0.34
Substance: recombinant Tp0957 (non-lipidated, residues 7-328) (natural protein)
